Source: patent publication US6713283B2, “Tyrosylprotein sulfotransferases” (The Board of Regents of the University of Oklahoma, priority 1998, dated 2004)

Experiments:
TPST = test: Inhibition of [35S]sulfate transfer in the TPST assay by free peptide; format: biochemical; conditions: free peptide versus immobilized peptide
Protocol: (§1) Assay of Sulfotransferase Activity. TPST activity was determined by measuring the transfer of [^35S]sulfate from [^35S]PAPS (Dupont/NEN) to an immobilized peptide. The peptide (QATEYEYLDYDFLPEC (SEQ ID NO:22)) represents the NH2-terminal 15 residues of the mature PSGL-1 polypeptide to which a carboxy terminal cysteine residue was added. […] The peptide was linked via the cysteine residue to iodoacetamide-activated resin (UltraLink™ Iodoacetyl, Pierce) at a density of 1.5-3.0 μmol/ml resin. The enzyme assay was performed by combining 10 μl of peptide-derivitized beads with 2-20 μl of sample in 40 mM PIPES, pH 6.8, 0.3 M NaCl, 20 mM MnCl2, 50 mM NaF, 1% Triton X-100, 1 mM 5′AMP in a final volume of […]. The assay was initiated by addition of 0.5 μCi of [^35S]PAPS (about 1.7 μM). After 30 min at 37° C., the reaction beads were washed extensively with 6 M guanidine at 65° C. and the radioactivity incorporated into the beads determined by liquid scintillation counting. The reaction rate was optimal at pH 6.8-7.0, 0.3 M NaCl, and 2 μM PAPS and was linear with respect to time and sample input. […] One unit of activity was defined as 1 pmol of product formed per minute.

[1] = system: PSGL-1 peptide (QATEYEYLDYDFLPEC); test: TPST activity assay: transfer of [35S]sulfate from [35S]PAPS to immobilized PSGL-1 peptide; format: biochemical, Homo sapiens; conditions: for specific activity of 293-T cell extracts: 293-T cells transfected with full-length HPC4 fusion cDNA; for specific activity of 293-T cell extracts / Specific Activity: mean ± SD; for increase in specific activity of 293-T cell extracts compared to mock transfected: PSGL-1 peptide substrate; for Induction-Fold: mean specific activity of TPST transfected vs. mock transfected extracts; for TPST activity in cell-free conditioned media / culture supernatants: conditioned media of transfected CHO-K1 and 293-T cells (full-length enzyme); for Specific Activity: 1 unit = 1 pmol product/min
Protocol: as §1
Chinese hamster ovary cells (CHO-K1) were grown in high-glucose Alpha modified Eagle's media containing 10% FCS, 2 mM glutamine at 37° C. and 5% CO2. The human embryonic kidney cell line 293-T was grown in low-glucose Dulbecco's modified Eagle's media containing 10% FCS, 2 mM glutamine at 37° C. and 5% CO2. Cells were transfected with empty vector or vector containing cDNAs encoding human TPST-1-HPC4 fusion protein or mouse TPST-1 using Lipofectamine (Gibco/BRL) according to the instructions of the supplier. The media was changed at 24 h and after an additional 24 h the conditioned media was collected. The cell monolayers were washed with Ca^2+/Mg^2+-free Hank's balanced salt solution and the cells released from the plates. The cells were pelleted by centrifugation and extracted with 1% Triton X-100, 0.1 M NaCl, 20 mM TAPS (pH 9.0), 10 μg/ml leupeptin/antipain, 5 mM benzamidine. Extracts and conditioned media were clarified by centrifugation (15 min, 10,000 g) and stored at −80° C.
Expression and characterization of Recombinant TPST-2. Full-length human and mouse TPST-2 were expressed in 293-T cells as HPC4 fusion proteins as described in Experimental Procedures. Cells transfected with empty plasmid or plasmid encoding human and mouse TPST fusion proteins were extracted and assayed for TPST activity and protein content. Extracts were assayed as discussed above using a PSGL-1 peptide substrate (QATEYEYLDYDFLPEC (SEQ ID NO:22)). The specific activity of mock transfected 293-T cell extracts was 0.06±0.01 u/mg (mean±SD, n=6).

[2] = extracts of transfected 293-T cells

## QATEYEYLDYDFLPEC [free peptide]
TPST
  IC50 for inhibition of transfer of [35S]sulfate: equimolar to the concentration of immobilized peptide in the assay

B1: human TPST-2: Full-length human tyrosylprotein sulfotransferase-2 (SEQ ID NO:5) expressed as HPC4 fusion protein (protein)
chain: MRLSVRRVLLAAGCALVLVLAVQLGQQVLECRAVLAGLRSPRGAMRPEQEELVMVGTNHVEYRYGKAMPLIFVGGVPRSGTTLMRAMLDAHPEVRCGEETRIIPRVLAMRQAWSKSGREKLRLDEAGVTDEVLDAAMQAFILEVIAKHGEPARVLCNKDPFTLKSSVYLSRLFPNSKFLLMVRDGRASVHSMITRKVTIAGFDLSSYRDCLTKWNKAIEVMYAQCMEVGKEKCLPVYYEQLVLHPRRSLKLILDFLGIAWSDAVLHHEDLIGKPGGVSLSKIERSTDQVIKPVNLEALSKWTGHIPGDVVRDMAQIAPMLAQLGYDPYANPPNYGNPDPFVINNTQRVLKGDYKTPANLKGYFQVNQNSTSSHLGSS
modifications: HPC4 epitope tag
[1]
  specific activity of 293-T cell extracts: 7.07±1.28 u/mg
[1]; 293-T cells
  increase in specific activity of 293-T cell extracts compared to mock transfected: 112 fold

B2: C. elegans TPST-A: C. elegans tyrosylprotein sulfotransferase of 380 amino acids (SEQ ID NO:9), expressed full-length in 293-T cells (protein)
chain: MRKNRELLLVLFLVVFILFYFITARTADDPYYSNHREKFNGAAADDGDESLPFHQLTSVRSDDGYNRTSPFIFIGGVPRSGTTLMRAMLDAHPEVRCGEETRVIPRILNLRSQWKKSEKEWNRLQQAGVTGEVINNAISSFIMEIMVGHGDRAPRLCNKDPFTMKSAVYLKELFPNAKYLLMIRDGRATVNSIISRKVTITGFDLNDFRQCMTKWNAAIQIMVDQCESVGEKNCLKVYYEQLVLHPEAQMRRITEFLDIPWDDKVLHHEQLIGKDISLSNVERSSDQVVKPVNLDALIKWVGTIPEDVVADMDSVAPMLRRLGYDPNANPPNYGKPDELVAKKTEDVHKNGAEWYKKAVQVVNDPGRVDKPIVDNEVSKL
[1]; 293-T cells
  increase in specific activity of 293-T cell extracts compared to mock transfected: 40 fold

B3: rat liver TPST: TPST purified from rat liver microsomes, polypeptide of about 50 kDa (protein)
chain: MVGKLKQNLLLACLVISSVTVFYLGQHAMECHHRIEERSQPARLENPKATVRTGLDIKANKTFTYHKNMPLIFIGGVPRSGTTLMRAMLDAHPDIRCGEETRVIPRILALKQMWSRSSKEKIRLDEAGVTDEVLDSAMQAFLLEVIVKHGEPAPYLCNKDPFALKSLTYLARLFPNAKFLLMVRDGRASVHSMISRKVTIAGFDLNSYRDCLTKWNRAIETMYNQCMEVGYKKCMLVHYEQLVLHPERWMRTLLKFLHIPWNHSVLHHEEMIGKAGGVSLSKVERSTDQVIKPVNVGALSKWVGKIPPDVLQDMAVIAPMLAKLGYDPYANPPNYGKPDPKILENTRRVHKGEFQLPDFLKEKPQTEQVE
[1]; rat liver microsomal enzyme after second PSGL-1 peptide column
  specific activity of purified enzyme: about 2,950 units/mg

B4: mTPST-1: Mouse tyrosylprotein sulfotransferase-1 (SEQ ID NO:3), expressed from unmodified pcDNA3.1(+) vector (protein)
chain: MVGKLKQNLLLACLVISSVTVFYLGQHAMECHHRIEERSQPARLENPKATVRAGLDIKANKTFTYHKDMPLIFIGGVPRSGTTLMRAMLDAHPDIRCGEETRVIPRILALKQMWSRSSKEKIRLDEAGVTDEVLDSAMQAFLLEVIVKHGEPAPYLCNKDPFALKSLTYLARLFPNAKFLLMVRDGRASVHSMISRKVTIAGFDLNSYRDCLTKWNRAIETMYNQCMEVGYKKCMLVHYEQLVLHPERWMRTLLKFLHIPWNHSVLHHEEMIGKAGGVSLSKVERSTDQVIKPVNVGALSKWVGKIPPDVLQDMAVIAPMLAKLGYDPYANPPNYGKPDPKILENTRRVYKGEFQLPDFLKEKPQTEQVE
[1]; 293-T cells
  Induction-Fold: 74 Fold
[1]
  TPST activity in cell-free conditioned media / culture supernatants: not detectable
[1]; [2]
  Specific Activity: 8.10 ± 1.37 (4) units/mg

B5: hTPST-1-HPC4: Human tyrosylprotein sulfotransferase-1 (SEQ ID NO:1) expressed as fusion protein with NH2-terminal HPC4 epitope (protein)
chain: MVGKLKQNLLLACLVISSVTVFYLGQHAMECHHRIEERSQPVKLESTRTTVRTGLDLKANKTFAYHKDMPLIFIGGVPRSGTTLMRAMLDAHPDIRCGEETRVIPRILALKQMWSRSSKEKIRLDEAGVTDEVLDSAMQAFLLEIIVKHGEPAPYLCNKDPFALKSLTYLSRLFPNAKFLLMVRDGRASVHSMISRKVTIAGFDLNSYRDCLTKWNRAIETMYNQCMEVGYKKCMLVHYEQLVLHPERWMRTLLKFLQIPWNHSVLHHEEMIGKAGGVSLSKVERSTDQVIKPVNVGALSKWVGKIPPDVLQDMAVIAPMLAKLGYDPYANPPNYGKPDPKIIENTRRVYKGEFQLPDFLKEKPQTEQVE
modifications: N-terminal HPC4 epitope tag
[1]; 293-T cell extracts, PSGL-1 peptide as substrate
  specific activity of TPST-1 extracts relative to TPST-2 extracts: comparable
[1]; 293-T cells
  Induction-Fold: 80 Fold
[1]; CHO-K1 cells
  Induction-Fold: 9 Fold
[1]
  TPST activity in cell-free conditioned media / culture supernatants: not detectable
[1]; [2]
  Specific Activity: 8.84 ± 1.53 (5) units/mg
[1]; extracts of transfected CHO-K1 cells
  Specific Activity: 2.31 ± 0.89 (3) units/mg
[1]; purified from 293-T cell extracts by HPC4 affinity chromatography
  specific activity of purified fusion protein: about 6,300 u/mg

B6: mouse TPST-2: Full-length mouse tyrosylprotein sulfotransferase-2 (SEQ ID NO:7) expressed as HPC4 fusion protein (protein)
chain: MRLSVRKVLLAAGCALALVLAVQLGQQVLECRAVLGGTRNPRRMRPEQEELVMLGADHVEYRYGKAMPLIFVGGVPRSGTTLMRAMLDAHPEVRCGEETRIIPRVLAMRQAWTKSGREKLRLDEAGVTDEVLDAAMQAFILEVIAKHGEPARVLCNKDPFTLKSSVYLARLFPNSKFLLMVRDGRASVHSMITRKVTIAGFDLSSYRDCLTKWNKAIEVMYAQCMEVGRDKCLPVYYEQLVLHPRRSLKRILDFLGIAWSDTVLHHEDLIGKPGGVSLSKIERSTDQVIKPVNLEALSKWTGHIPRDVVRDMAQIAPMLARLGYDPYANPPNYGNPDPIVINNTHRVLKGDYKTPANLKGYFQVNQNSTSPHLGSS
modifications: HPC4 fusion tag
[1]
  specific activity of 293-T cell extracts: 2.91±0.86 u/mg
[1]; 293-T cells
  increase in specific activity of 293-T cell extracts compared to mock transfected: 46 fold
